Reference: article PMC12342048

Biological target: mammalian cell-expressed human COMP (Cartilage Oligomeric Matrix Protein) (human) (UniProt P49747)
Sequence (P49747 21-757): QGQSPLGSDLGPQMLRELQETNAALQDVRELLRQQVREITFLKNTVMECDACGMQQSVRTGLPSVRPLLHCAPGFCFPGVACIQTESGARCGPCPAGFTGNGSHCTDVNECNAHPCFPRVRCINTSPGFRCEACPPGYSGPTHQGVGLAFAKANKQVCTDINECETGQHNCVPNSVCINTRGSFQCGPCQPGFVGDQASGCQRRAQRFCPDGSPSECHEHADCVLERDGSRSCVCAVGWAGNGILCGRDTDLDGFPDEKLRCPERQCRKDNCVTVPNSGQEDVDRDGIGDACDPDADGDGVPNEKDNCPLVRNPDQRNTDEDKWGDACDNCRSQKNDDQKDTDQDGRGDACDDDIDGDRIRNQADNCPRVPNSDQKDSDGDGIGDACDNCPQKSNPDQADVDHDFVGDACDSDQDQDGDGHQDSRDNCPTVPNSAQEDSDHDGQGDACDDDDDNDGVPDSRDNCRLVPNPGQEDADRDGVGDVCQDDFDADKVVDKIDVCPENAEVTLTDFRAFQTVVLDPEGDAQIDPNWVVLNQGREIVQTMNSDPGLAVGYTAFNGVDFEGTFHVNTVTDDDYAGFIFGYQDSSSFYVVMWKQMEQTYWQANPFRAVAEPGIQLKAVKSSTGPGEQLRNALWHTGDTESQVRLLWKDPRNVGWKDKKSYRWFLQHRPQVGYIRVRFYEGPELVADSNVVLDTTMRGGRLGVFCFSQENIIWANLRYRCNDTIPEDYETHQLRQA

Sequence of ADAMTS4 variant β3-β4; β9-β10 (both loops replaced with those of ADAMTS13) (O75173 52-837, change not shown): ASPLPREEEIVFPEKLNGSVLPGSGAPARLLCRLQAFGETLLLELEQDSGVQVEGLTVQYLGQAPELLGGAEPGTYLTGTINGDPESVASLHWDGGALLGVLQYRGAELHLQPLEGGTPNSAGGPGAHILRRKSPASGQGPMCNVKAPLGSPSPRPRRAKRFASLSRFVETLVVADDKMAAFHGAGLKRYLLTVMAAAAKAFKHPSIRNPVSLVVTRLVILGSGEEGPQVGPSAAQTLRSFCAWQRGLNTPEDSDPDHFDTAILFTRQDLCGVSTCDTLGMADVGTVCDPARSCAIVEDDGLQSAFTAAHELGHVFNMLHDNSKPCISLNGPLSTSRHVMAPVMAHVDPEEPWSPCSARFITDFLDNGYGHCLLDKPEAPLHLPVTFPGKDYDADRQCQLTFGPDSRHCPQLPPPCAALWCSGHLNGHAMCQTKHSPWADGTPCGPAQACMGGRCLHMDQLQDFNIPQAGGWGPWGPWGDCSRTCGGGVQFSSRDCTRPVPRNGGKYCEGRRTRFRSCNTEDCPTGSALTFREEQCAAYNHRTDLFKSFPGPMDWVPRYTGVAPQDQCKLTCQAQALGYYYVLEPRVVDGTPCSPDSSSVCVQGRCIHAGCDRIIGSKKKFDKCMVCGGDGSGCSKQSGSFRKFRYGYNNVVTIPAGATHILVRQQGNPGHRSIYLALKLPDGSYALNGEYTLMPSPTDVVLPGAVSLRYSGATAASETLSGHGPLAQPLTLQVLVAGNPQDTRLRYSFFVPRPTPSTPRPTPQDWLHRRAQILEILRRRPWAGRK
Sequence of ADAMTS4 variant β1-β2 (residues 693–698 swapped with those of ADAMTS13) (O75173 52-837, change not shown): as above

reduction in COMPase activity at the S77-V78 bond compared to WT ADAMTS4 (hCOMP 520 nM, enzyme 12 nM, 2 h, 37 °C; densitometry of anti-QQS77 immunoblot, WT set as 100 %) [% reduction]	Substance
20	ADAMTS4 variant β3-β4; β9-β10 (both loops replaced with those of ADAMTS13) (from UniProt O75173 52-837) (enzyme)
25	ADAMTS4 variant β1-β2 (residues 693–698 swapped with those of ADAMTS13) (from UniProt O75173 52-837) (enzyme)
